# According to the supplement of paper PMC9112550, “Optimization of the antimicrobial peptide Bac7 by deep mutational scanning” (BMC Biology, 2022):
# System: Escherichia coli TOP10
# Assay: shrunken log2 fold change of peptide-encoding DNA abundance (4.5 h post-induction vs induction); higher = less antimicrobial activity (less host growth inhibition)
# Conditions: time post-induction: 4.5 h; library: site-saturation at positions 5, 18, 19, 20
# 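Further: peptides expressed intracellularly from a pBAD plasmid library in pooled LB shake-flask culture, induced with 0.3% L-arabinose, DNA abundance read by NGS, three biological replicates, DESeq2 with apeglm shrinkage.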
row,Sequence,shrunken log2 fold change
1,RRIRVRPPRLPRPRPRPKNDPRP,0.011
2,RRIRIRPPRLPRPRPRPAQPPRP,0.213
3,RRIRPRPPRLPRPRPRPKWHPRP,0.173
4,RRIRPRPPRLPRPRPRPFPYPRP,-0.0798
5,RRIRPRPPRLPRPRPRPNSQPRP,-0.314
6,RRIRDRPPRLPRPRPRPWWCPRP,-0.00632
7,RRIRGRPPRLPRPRPRPVMHPRP,0.575
8,RRIRARPPRLPRPRPRPNCQPRP,0.267
9,RRIRIRPPRLPRPRPRPICNPRP,-0.607
10,RRIRMRPPRLPRPRPRPQPNPRP,0.546
11,RRIRLRPPRLPRPRPRPSWGPRP,0.00407
12,RRIRSRPPRLPRPRPRPHLEPRP,-0.395
13,RRIRSRPPRLPRPRPRPNGTPRP,-0.188
14,RRIRIRPPRLPRPRPRPNDGPRP,-0.483
15,RRIRCRPPRLPRPRPRPEFKPRP,0.0244
16,RRIRWRPPRLPRPRPRPEYGPRP,0.222
17,RRIRERPPRLPRPRPRPDMGPRP,-0.265
18,RRIRARPPRLPRPRPRPTTQPRP,0.584
19,RRIRCRPPRLPRPRPRPCKSPRP,-0.0591
20,RRIRSRPPRLPRPRPRPWGEPRP,0.00882
21,RRIRRRPPRLPRPRPRPQGAPRP,-0.0933
22,RRIRMRPPRLPRPRPRPKFPPRP,0.455
23,RRIRKRPPRLPRPRPRPLPFPRP,-0.11
24,RRIRCRPPRLPRPRPRPTDHPRP,-0.257
25,RRIRARPPRLPRPRPRPYMMPRP,-1.22

row,Sequence,shrunken log2 fold change
1,RRIRERPPRLPRPRPRPDVDPRP,0.0225
2,RRIRHRPPRLPRPRPRPFESPRP,-0.00822
3,RRIRKRPPRLPRPRPRPFSNPRP,-0.411
4,RRIRGRPPRLPRPRPRPYNPPRP,-0.504
5,RRIRGRPPRLPRPRPRPLWWPRP,0.458
6,RRIRNRPPRLPRPRPRPFDMPRP,-0.0725
7,RRIRARPPRLPRPRPRPANFPRP,0.137
8,RRIRFRPPRLPRPRPRPVCYPRP,-0.495
9,RRIRPRPPRLPRPRPRPFMKPRP,-0.915
10,RRIRHRPPRLPRPRPRPNPEPRP,-0.00699
11,RRIRYRPPRLPRPRPRPRPEPRP,0.254
12,RRIRCRPPRLPRPRPRPPDLPRP,-0.00662
13,RRIRIRPPRLPRPRPRPSIVPRP,-0.477
14,RRIRHRPPRLPRPRPRPLNQPRP,-0.17
15,RRIRDRPPRLPRPRPRPTPCPRP,0.25
16,RRIRGRPPRLPRPRPRPQNFPRP,0.136
17,RRIRLRPPRLPRPRPRPRWLPRP,0.398
18,RRIRARPPRLPRPRPRPHMHPRP,-0.152
19,RRIRTRPPRLPRPRPRPISRPRP,-0.0253
20,RRIRYRPPRLPRPRPRPTMEPRP,0.0667
21,RRIRMRPPRLPRPRPRPISFPRP,-0.496
22,RRIRKRPPRLPRPRPRPILHPRP,-0.394
23,RRIRFRPPRLPRPRPRPQLVPRP,-0.117
24,RRIRCRPPRLPRPRPRPSHTPRP,-0.283
25,RRIRPRPPRLPRPRPRPFFDPRP,-0.12

row,Sequence,shrunken log2 fold change
1,RRIRERPPRLPRPRPRPVFDPRP,-0.461
2,RRIRQRPPRLPRPRPRPIYEPRP,-0.0255
3,RRIRPRPPRLPRPRPRPKTGPRP,0.186
4,RRIRERPPRLPRPRPRPNARPRP,-0.0167
5,RRIRCRPPRLPRPRPRPASWPRP,0.219
6,RRIRWRPPRLPRPRPRPHPGPRP,-0.0288
7,RRIRHRPPRLPRPRPRPHTLPRP,-0.247
8,RRIRLRPPRLPRPRPRPEPPPRP,0.53
9,RRIRPRPPRLPRPRPRPMPRPRP,0.238
10,RRIRIRPPRLPRPRPRPWYYPRP,-0.00149
11,RRIRPRPPRLPRPRPRPYIQPRP,-0.375
12,RRIRIRPPRLPRPRPRPNVNPRP,-0.594
13,RRIRRRPPRLPRPRPRPGKFPRP,0.284
14,RRIRQRPPRLPRPRPRPQIMPRP,-0.528
15,RRIRERPPRLPRPRPRPTHKPRP,0.0682
16,RRIRYRPPRLPRPRPRPMFIPRP,-0.908
17,RRIRFRPPRLPRPRPRPMHAPRP,0.0753
18,RRIRCRPPRLPRPRPRPFNTPRP,-0.2
19,RRIRRRPPRLPRPRPRPCMVPRP,0.106
20,RRIRSRPPRLPRPRPRPGQKPRP,0.0237
21,RRIRMRPPRLPRPRPRPMHVPRP,-0.207
22,RRIRTRPPRLPRPRPRPCSFPRP,-0.625
23,RRIRDRPPRLPRPRPRPSDSPRP,-0.0584
24,RRIRRRPPRLPRPRPRPYVYPRP,-0.209
25,RRIRWRPPRLPRPRPRPVRDPRP,0.687

row,Sequence,shrunken log2 fold change
1,RRIRVRPPRLPRPRPRPWTKPRP,-0.106
2,RRIRSRPPRLPRPRPRPFCVPRP,-0.128
3,RRIRDRPPRLPRPRPRPTGGPRP,0.166
4,RRIRERPPRLPRPRPRPPQRPRP,0.315
5,RRIRNRPPRLPRPRPRPKWQPRP,0.182
6,RRIRTRPPRLPRPRPRPRFTPRP,0.0679
7,RRIRYRPPRLPRPRPRPLDRPRP,-0.182
8,RRIRSRPPRLPRPRPRPWHQPRP,-0.25
9,RRIRPRPPRLPRPRPRPFFVPRP,0.064
10,RRIRNRPPRLPRPRPRPVYAPRP,-0.128
11,RRIRYRPPRLPRPRPRPHASPRP,0.0262
12,RRIRQRPPRLPRPRPRPNQPPRP,-0.0757
13,RRIRTRPPRLPRPRPRPLFFPRP,-0.263
14,RRIRLRPPRLPRPRPRPCDQPRP,-0.016
15,RRIRVRPPRLPRPRPRPSPTPRP,0.0219
16,RRIRSRPPRLPRPRPRPLSVPRP,-0.0334
17,RRIRWRPPRLPRPRPRPSNRPRP,-0.174
18,RRIRVRPPRLPRPRPRPMYFPRP,-0.569
19,RRIRFRPPRLPRPRPRPWQAPRP,0.0155
20,RRIRTRPPRLPRPRPRPTARPRP,0.0618
21,RRIRARPPRLPRPRPRPNGHPRP,0.53
22,RRIRPRPPRLPRPRPRPATVPRP,-0.0314
23,RRIRGRPPRLPRPRPRPIQFPRP,-0.146
24,RRIRWRPPRLPRPRPRPDDRPRP,0.171
25,RRIRERPPRLPRPRPRPMNCPRP,0.0528

row,Sequence,shrunken log2 fold change
1,RRIRCRPPRLPRPRPRPWHVPRP,-0.259
2,RRIRRRPPRLPRPRPRPEILPRP,0.14
3,RRIRKRPPRLPRPRPRPMIGPRP,0.0437
4,RRIRWRPPRLPRPRPRPEQEPRP,0.0529
5,RRIRCRPPRLPRPRPRPWGSPRP,-0.151
6,RRIRSRPPRLPRPRPRPFICPRP,-0.163
7,RRIRRRPPRLPRPRPRPFHWPRP,-0.111
8,RRIRQRPPRLPRPRPRPLSPPRP,-0.109
9,RRIRFRPPRLPRPRPRPMCTPRP,0.0284
10,RRIRFRPPRLPRPRPRPIFLPRP,-0.196
11,RRIRRRPPRLPRPRPRPIVCPRP,0.539
12,RRIRERPPRLPRPRPRPFRHPRP,0.0628
13,RRIRQRPPRLPRPRPRPDEPPRP,-0.0062
14,RRIRHRPPRLPRPRPRPRKRPRP,0.246
15,RRIRIRPPRLPRPRPRPWQFPRP,-0.243
16,RRIRQRPPRLPRPRPRPVSQPRP,0.00815
17,RRIRARPPRLPRPRPRPKETPRP,0.229
18,RRIRRRPPRLPRPRPRPKVQPRP,-0.0356
19,RRIRCRPPRLPRPRPRPDMVPRP,-0.184
20,RRIRFRPPRLPRPRPRPAAQPRP,0.122
21,RRIRWRPPRLPRPRPRPYDWPRP,-0.0803
22,RRIRKRPPRLPRPRPRPKGSPRP,0.436
23,RRIRSRPPRLPRPRPRPEKNPRP,0.312
24,RRIRCRPPRLPRPRPRPNIAPRP,-0.275
25,RRIRGRPPRLPRPRPRPYKIPRP,-0.618
